Results on 2 substances are retold here after article PMC4840375.

In assay [1] the target is TraH expressed in E. faecalis JH2-2 (pEU327-RBS-traH) (Enterococcus faecalis (plasmid pIP501)). Kind of assay: cross-linking; in vivo, E. faecalis JH2-2 (pEU327-RBS-traH) cells in early log phase, formaldehyde 0.5–2% in PBS for 10 minutes; SDS-PAGE and western blot. A general note: A western blot detects proteins with antibodies after separation by electrophoresis.
Assay [2] deals with TraH, full length, purified and reconstituted in DDM micelles (Enterococcus faecalis (plasmid pIP501)). Kind of assay: SEC; analytical SEC of full length TraH reconstituted in DDM micelles; 70 kDa taken for the micelle; apparent molecular weight. A general note: In gel filtration, larger molecules generally elute earlier.
Assay [3] shares this target. Kind of assay: cross-linking; in vitro, 8 μg purified protein, 300 mM NaCl, 100 mM bicine, 1 mM DTT, glutaraldehyde 0–1% (v/v), 15 min at RT; full-length TraH kept in DDM micelles; SDS-PAGE and western blot.
The target is the same in assay [4]. The experiment in a line: native gel or EMSA; semi-native PAGE: sample buffer without SDS and reducing agent, 4 °C, 12.5% native gels, running buffer with 0.1% SDS; full-length TraH in DDM micelles; western blot. In general terms: A gel shift assay detects complexes by their altered migration in electrophoresis.

For the substance “TraH expressed in E. faecalis JH2-2 (pEU327-RBS-traH) (natural protein)”, in assay [1], the stoichiometry N (commonly the number of molecules, sites or subunits per partner or assembly) was 2.
With “TraH, full length, purified and reconstituted in DDM micelles (natural protein)”, the results for the stoichiometry N in assay [2], in assay [3] and in assay [4] were 4, 2 and 2, respectively.
